Test results: US20260008853A1 (BEONE MEDICINES I, published 2026)

Experiments:
[1] = molecular target: Human CD16B (NA2) on NK92mi/CD16B (NA2) cells (human) (UniProt O75015); experiment: flow cytometry on NK92mi/CD16B(NA2) cells, anti-human IgG Fc detection
[2] = molecular target: Human CD16B (NA1) on NK92mi/CD16B (NA1) cells (human) (UniProt O75015); experiment: flow cytometry on NK92mi/CD16B(NA1) cells, anti-human IgG Fc detection
[3] = molecular target: Human CD16A (V158) on NK92mi/CD16A V158 cells (human) (UniProt P08637); experiment: flow cytometry on NK92mi/CD16A V158 cells, anti-human IgG Fc detection
human CD16B-His6 (SH) = molecular target: T1, human CD16B-His6 (SH) (human, UniProt O75015 17-200); experiment: antigen ELISA, coated human CD16B-His6 (SH), HRP anti-human IgG
T1 construct: Bought ECD fragment (Sino Biologics); also called CD16B SH allotype; human CD16B (SH); not shown: six-histidine tag
T1 sequence (O75015 17-200): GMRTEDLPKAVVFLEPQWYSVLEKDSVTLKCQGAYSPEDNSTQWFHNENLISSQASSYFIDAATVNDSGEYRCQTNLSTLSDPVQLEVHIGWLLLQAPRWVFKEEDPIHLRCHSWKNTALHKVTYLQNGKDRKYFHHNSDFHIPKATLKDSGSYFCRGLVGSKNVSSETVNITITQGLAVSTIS

Human CD16B (NA1) on NK92mi/CD16B (NA1) cells (human), sequence (O75015 other isoform, or with tags, fused parts or gaps limits assumed): as the sequence (O75015 17-200) above, with S20R, N66D, I90V counted along it
Human CD16B (NA2) on NK92mi/CD16B (NA2) cells (human), sequence (O75015 17-200 N65S limits assumed): as the sequence (O75015 17-200) above, with N49S counted along it
Human CD16A (V158) on NK92mi/CD16A V158 cells (human), sequence (P08637 17-254 F176V limits assumed): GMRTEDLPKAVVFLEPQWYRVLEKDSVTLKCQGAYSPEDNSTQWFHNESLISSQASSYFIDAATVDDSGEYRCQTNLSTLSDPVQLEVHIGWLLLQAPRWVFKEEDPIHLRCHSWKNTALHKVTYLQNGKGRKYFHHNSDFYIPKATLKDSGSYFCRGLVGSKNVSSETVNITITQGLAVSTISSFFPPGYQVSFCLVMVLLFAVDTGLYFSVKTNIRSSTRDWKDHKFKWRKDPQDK

EC50 [1] | EMAX [1] | EC50 [2] | EMAX [2] | EC50 [3] | EMAX [3] | binding result (human CD16B-His6 (SH)) | Molecule
0.314 µg/mL | 7.66 | 10.3 µg/mL | 7.46 | 0.0112 µg/mL | 7.55 |  | Human IgG (antibody)
 |  |  |  |  |  | no binding (tested: 1 ug/ml) | LS21 (scFv, also called positive control) scFv: EVQLVQSGAEVKKPGESLKVSCKASGYTFTSYYMHWVRQAPGQGLEWMGIINPSGGSTSYAQKFQGRVTMTRDTSTSTVYMELSSLRSEDTAVYYCARGSAYYYDFADYWGQGTLVTVSSGGGGSGGGGSGGGGSQPVLTQPSSVSVAPGQTATISCGGHNIGSKNVHWYQQRPGQSPVLVIYQDNKRPSGIPERFSGSNSGNTATLTISGTQAMDEADYYCQVWDNYSVLFGGGTKLTVL
